# In paper PMC4468156, “Essential Role for an M17 Leucine Aminopeptidase in Encystation of Acanthamoeba castellanii” (PLoS ONE, 2015):
# B1: AcLAPr (recombinant AcLAP, M17 leucine aminopeptidase) (Acanthamoeba castellanii) (protein)
# chain: MQGKAKCLLWGAASFRSSLRAGAASSSAASIFTRSATHRSPLLSSHGLFPSGSKLIFVAPSTFGTTKPCYSTAAGGDKQIDGVVVGIFEGGELTPAGQAIDKSTSGALTRRIKLSKKAAKGEVGGGEVFFDLGEDYPRVAVVGLGKHPRDVKLTSEQEDYREGQPKPSDAVRQGAARGARLLRDAGSKVIGVESFSEFADLPSVQLAAEGALLGLHKFDELFSKKDDEPVDVRPWGVEADKQEEWNRGKIIATAQNFARVLTDTPANLMTPTIFSQKVEEKFASLPNKADVKIFAHDKAWAEEQGMGCFLGVTQGSEEPPKFLEIHYNPLGDEAQDVAPIIFVGKGVTFDSGGISIKPSEGMGMMRGDMGGAAAVVSTVWALASLQIKTKAICLTPLCENMPSGTATKPGDVLRAKNGKTVEVDNTDAEGRLILADALVYANSFKPAAVIDVATLTGAMVVALGAGATGVFTTSDKLWREMDEAGWKTDSRVWRMPLFSSYKRQIKSAYADLKNVGGRPAGSSTAALFLKEFVETPAWMHMDIAGVMHSDDRNAYTPKGMAGEPVRTLVQWVRDKVEKH
# notes: pCold TF vector, E. coli BL21 (pKJE7), Ni-NTA; N-terminal His6-trigger factor tag removed with thrombin
# Legend:
# [1] = biological target: T1, AcLAPr (recombinant AcLAP, M17 leucine aminopeptidase) (Acanthamoeba castellanii, UniProt A0A060A630); test: inhibition of Leu-AMC hydrolysis, fluorometric; format: biochemical
# T1 construct: gene LAP; pCold TF vector, E. coli BL21 (pKJE7), Ni-NTA; N-terminal His6-trigger factor tag removed with thrombin
# T1 sequence (A0A060A630 1-579): B1 chain
# Text: inhibition of Leu-AMC hydrolysis, fluorometric on AcLAPr (recombinant AcLAP, M17 leucine aminopeptidase)
# purified protein [2] = substrate: CSCC[C@H](N)C(=O)Nc1ccc2c(C)cc(=O)oc2c1; test: purified protein; format: biochemical, Acanthamoeba castellanii; conditions: 50 mM Tris-HCl, 1 mM MnCl2, pH 8.0, 37°C, 25 nM enzyme
# purified protein [3] = substrate: Cc1cc(=O)oc2cc(NC(=O)[C@@H](N)CC(C)C)ccc12; test: purified protein; format: biochemical, Acanthamoeba castellanii; conditions: 50 mM Tris-HCl, 1 mM MnCl2, pH 8.0, 37°C, 25 nM enzyme
# purified protein [4] = substrate: Cc1cc(=O)oc2cc(NC(=O)[C@@H](N)CCCNC(=N)N)ccc12; test: purified protein; format: biochemical, Acanthamoeba castellanii; conditions: 50 mM Tris-HCl, 1 mM MnCl2, pH 8.0, 37°C, 25 nM enzyme
Molecule,activity at 10 µM [1] [%],Km (purified protein [2]) [µM],Km (purified protein [3]) [µM],Km (purified protein [4]) [µM]
CC(C)C[C@H](NC(=O)[C@@H](O)[C@H](N)Cc1ccccc1)C(=O)O [bestatin],22.5 ± 1.13,–,–,–
B1,–,3.77 ± 0.46,13.51 ± 1.31,41.37 ± 0.05
